Positions count from the first letter of the chain named.
T1: hiR2-FL-D569E-T7 (human, UniProt Q6PJF5 1-856)
T1 sequence: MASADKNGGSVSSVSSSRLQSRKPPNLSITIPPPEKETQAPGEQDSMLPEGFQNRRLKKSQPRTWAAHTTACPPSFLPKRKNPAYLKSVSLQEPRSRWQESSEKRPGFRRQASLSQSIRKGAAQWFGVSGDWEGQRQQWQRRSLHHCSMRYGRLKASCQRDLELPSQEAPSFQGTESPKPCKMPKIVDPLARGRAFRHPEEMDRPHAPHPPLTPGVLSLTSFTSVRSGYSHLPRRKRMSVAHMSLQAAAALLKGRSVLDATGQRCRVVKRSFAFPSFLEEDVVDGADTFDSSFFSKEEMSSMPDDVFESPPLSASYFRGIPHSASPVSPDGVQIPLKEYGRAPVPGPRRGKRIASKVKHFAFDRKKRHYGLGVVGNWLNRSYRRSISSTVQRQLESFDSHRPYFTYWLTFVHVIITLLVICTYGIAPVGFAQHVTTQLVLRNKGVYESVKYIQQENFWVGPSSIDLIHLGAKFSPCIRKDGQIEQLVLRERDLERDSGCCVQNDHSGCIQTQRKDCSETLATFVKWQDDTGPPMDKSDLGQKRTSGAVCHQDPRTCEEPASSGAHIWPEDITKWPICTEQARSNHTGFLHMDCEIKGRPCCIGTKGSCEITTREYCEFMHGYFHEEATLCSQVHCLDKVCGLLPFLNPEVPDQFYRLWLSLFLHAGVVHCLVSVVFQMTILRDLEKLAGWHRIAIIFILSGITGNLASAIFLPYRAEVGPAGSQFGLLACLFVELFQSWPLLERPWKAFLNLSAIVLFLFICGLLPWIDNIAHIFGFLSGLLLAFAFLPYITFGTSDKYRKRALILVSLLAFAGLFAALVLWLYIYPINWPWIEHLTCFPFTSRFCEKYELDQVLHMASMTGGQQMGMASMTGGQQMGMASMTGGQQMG

B1: antibody 48 (antibody, V domains shown)
VH: QVQLQQSGTELVRPGTSVKVSCKASGYAFTNYLIEWVKQRPGQGLEWIGVINPGSGFTKYNEKFKGKATLTADKSSSTVYMHLSSLTSEDSAVYFCARGLYRAMDYWGQGTSVTVSS
VL: DIQMTQSPASQSASLGESVTITCLASQTIATWLAWYQQKPGKSPQLLIYGATTLADGVPSRFSGGGSGTKFSFKISSLQAEDFVSYYCQQLYSTPYTFGGGTKLEIK
notes: mouse IgG, kappa light chain; also called clone #48; purified antibody 48
B2: antibody 50 (antibody, V domains shown)
VH: B1 VH with T9A, T16A, T30S, V79A, H82Q
VL: B1 VL with A30G, G50A, T52A, T53S, S85N, L91I
notes: mouse IgG, kappa light chain; also called clone #50; purified antibody 50

Molecular target: T1, hiR2-FL-D569E-T7
Test: FACS, MEF-DKO cells, 3 µg/ml
Procedure, shortened: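 Binding read by flow cytometry after a PE goat anti-mouse IgG F(ab′)2 secondary (1:100, on ice, 1 h, dark). Before that, immortalized MEF-DKO lines carrying single-mutant hiR2-FL-T7 constructs were incubated 1 h on ice with 3 μg/ml antibody or FACS buffer alone.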

| Binder | loss of binding vs wild type |
| --- | --- |
| B1 | ≥ 30% |
| B2 | ≥ 30% |

— patent US20240287172A1 (SCIRHOM, published 2024)
